According to the DeepSol protein solubility set:

Assay: soluble on expression in E. coli; label from the status in PepcDB or PDB records

Row | Sequence | soluble on expression in E. coli
1 | SDAMDKRLKIATIGGGSSYTPELVEGLIKRYHELPVGELWLVDIPEGKEKLEIVGALAKRMVEKAGVPIEIHLTLDRRRALDGADFVTTQFRVGGLEARAKDERIPLKYGVIGQETNGPGGLFKGLRTIPVILDIIRDMEELCPDAWLINFTNPAGMVTEAVLRYTKQEKVVGLCNVPIGMRMGVAKLLGVDADRVHIDFAGLNHMVFGLHVYLDGVEVTEKVIDLVAHPDRSGVTMKNIVDLGWEPDFLKGLKVLPCPYHRYYFQTDKMLAEELEAAKTKGTRAEVVQQLEKELFELYKDPNLAIKPPQLEKRGGAYYSDAACSLISSIYNDKRDIQPVNTRNNGAIASISAESAVEVNCVITKDGPKPIAVGDLPVAVRGLVQQIKSFERVAAEAAVTGDYQTALVAMTINPLVPSDTIAKQILDEMLEAHKEYLPQFFKQAKATAGN | soluble
2 | MSLQDTWGGKMNTLGDRVLLCNDKRSLPAAAVATPFLFESMLFSVCTRGYARLLIDSREIEVKEGELLVVMPRKTIEVIESSCFRAFHLCLDKEILALSAIRISGFISIINKLHSNEPFRPERMEKDFLTATLDLIRNALQNGGRHQEEIVIYLISSLFLFLDDMIADEVEKDCKHTRSETICRDFLLLVSEHHKEQHTVKFYADRLCLSSKHLALTIKTVMGQSASKVINSFIIQQAKSLLRYTDKTVQEIGYELNFSTQSFFGKYFKQHTGMSPGEYRSQEARNRQSEES | not soluble
3 | SLPVINGAHVISMKNYTLVSDAYGEKGVKKVYEDEYLICENLKSFNKNLHPNFNFACFCLFDGHNGKNTAMFLKRNLAQELSNSFLEMQNTYDSSLPIPDHFIKISVNNTCKRIDERIAQEYPNSRDGATCVIVLIKDEYAYIINIGDSCAYLCRYLNNSNQAIELVDIHKPWVITEKERIIKHGGTIENGRVNDIIDVTRSFGDLSLKKYGLLCTGTFKKFKINSDDNFIILGTDGFFGSVDINYVINEITNLSKKEERLVNVEKKKTVFDAKSICNIMVEHAIVDKKSQDNVTVVLIKFLHKKGNSSTTTTTTEIRLLTKPERKLSWLLPPLSNN | soluble
4 | MGSRTGSREEHSLQFLNLTKMTTTTASNLPWVEKYRPSKLDELVAHEQIVKTLTKFIENRTLPHLLFYGPPGTGKTTTVLAAARQMYSPTKMASMVLELNASDERGIDVVRNTIVNFAQTKGLQAFSTSSNTGTVPFKLVILDEADAMTKDAQNALRRLDKTDYEQNIIIHNVNIYFRVIEKYTDNVRFCIICNYLASIVPAIQSRCTRFRFAPLDQKLIVPRLEYIVETEQLKMTPDGKDALLIVSKGDMRTVINTLQSTAMSFDTVSENTVYQCIGQPTPKEMKEVVKTLLNDPSKKCMNTIQTKLFENGYALQDVITHLHDFVFTLDIPDEAMSAIITGLGEVEENLSTGCSNETQLAAVVAAFFEAKRLCVKEMKNLEIEDMEF | not soluble
5 | MPTERPTTTAPVSLRERRRTAAAREILDAAEQHIGEHGPAALSLRAVARGLGMTVQALYHYFPNRDALVTALITKAYGELSDVLQAAADSVRADPATPRPVAVAEAYRGWGVARPEHFQLLYGTPLRYYAAPAEGPTTQAVRRMGAIFQRELFAGFTPAQLAAAEVPALSPSYREHLEQLPMHAQGDLPPAAASLFLSAWGHVHGLVVLEVFGHTAFLGDHQAEVFRTSVRMMLEDIHRRIPAA | not soluble
6 | MDNNPIENFMRTTMENIKGMIDVNTIVGEPIKNTDGSLIIPISKVSFGFASGGSEFKSQEDSQENKKIYPFGGGAGAGVSLKPIAFLVIKDDSVRLLPLNAENTYEKVVDMIPQLIEMCKGFSHKSKKEKCCNDDKKKDSNSTNGNTDNANQNSQQQSLEHHHHHH | soluble
7 | MGSDKIHHHHHHMSERKPIPKSVKKVLRSEVGFGCPVKGCGNPYLEYHHFDPPVSVKPHNEPEGMIALCAQHHKKADGGAYTIEQLHALKKDKANAKLVRGNLDWLRKDLLAVVGGNFYYETPRIITIDNIDLVSLVRDEDGYLRLNVNMLSLEPDERIIIEENSWENIGSPLDLRSPPQGKELEISYHNGDYLYLRFIELQSFEQAQQRYETDVFKDITFPITAVEVNMTIAGTRIELTPISSQLGGIKMTGCLSSHCGGGVVIQNSGIQWKQNPVWKRKTLVEETEHPNVVKVNFGRR | not soluble
8 | SMGRRCQAQVSRRISFSASHRLYSKFLSDEENLKLFGKCNNPNGHGHNYKVVVTVHGEIDPATGMVMNLADLKKYMEEAIMQPLDHKNLDMDVPYFADVVSTTENVAVYIWDNLQKVLPVGVLYKVKVYETDNNIVVYKGE | soluble
9 | MRAPGVRAADGAGRVVLYLHGGAFVMCGPNSHSRIVNALSGFAESPVLIVDYRLIPKHSLGMALDDCHDAYQWLRARGYRPEQIVLAGDSAGGYLALALAQRLQCDDEKPAAIVAISPLLQLAKGPKQDHPNIGTDAMFPARAFDALAAWVRAAAAKNMVDGRPEDLYEPLDHIESSLPPTLIHVSGSEVLLHDAQLGAGKLAAAGVCAEVRVWPGQAHLFQLATPLVPEATRSLRQIGQFIRDATADSSLSPVHRSRYVAGSPRAASRGAFGQSPI | soluble
10 | MSLNLSKTLKHVYQEAKVSDLFPITHLNSPCIFESQSGLVGSVIKVNGAAFEIEEAETLNHQRFLLHQALVSLDSRFIIYVTTHRQKISCPLIGEFKPGFAKDLDERYQQRFKDKNLYKNTLYITVVLKGDDTSKTGSWLKWAKSLSIKGNSELSEHHREQSIQTLNRVVEQLQANLNPFEATILGKQDEVLGFSELLQFLGLVVNAGQTTSFKHPVCSPPIANSIPQTFKQEVKYPEGHLGQYLSSCQLLFGECIQFQGNTQKDCVFGAMLSLKKYPTNTASILLDSMLSLDCEFIATHTFAPIGRDSALDTISKKRSKLLSAEDKALSQTTALSDLEDGIASETLLLGAHHHTVMLLAPNKSLLDAAILEATKRYGSAGIVVVKETLGLEPAFWSQLPCNQHFITRASLITSQNFVDFCPLHNTQTGFSNENFLGGAVTLLETPSKTPVYFNYHARGSKTEGHHHHHH | soluble
11 | MDILLVDGYNMIGAWPQLKDLKANSFEEARDVLIQKMAEYQSYTGNRVIVVFDAHLVKGLEKKQTNHRVEVIFTKENETADERIEKLAQALNNIATQIHVATSDYTEQWAIFGQGALRKSARELLREVETIERRIERRVRKITSEKPAGKIALSEEVLKTFEKWRRGDLDLEHHHHHH | not soluble
12 | MAANGAKGRKVMRVLVVDNYDSFTYNLVQYLGELGAEPIVWRNDRFRLEEVEALDPDRILISPGPCTPFEAGLSVPLVQRYAPRYPILGVCLGHQAIGAAFGGKVVPAPVLMHGKVSPIHHDGTGVFRGLDSPFPATRYHSLAVVEVPEALVVNAWAEEAGGRTVMGFRHRDYPTHGVQFHPESYLTEAGKLILKNFLEDPWTR | soluble
13 | MRVKHFELLTDEGKTFTHVDLYGKYTILFFFPKAGTSGCTREAVEFSRENFEKAQVVGISRDSVEALKRFKEKNDLKVTLLSDPEGILHEFFNVLENGKTVRSTFLIDRWGFVRKEWRRVKVEGHVQEVKEALDRLIEEDLSLNKHIEWRRARRALKKDRVPREELELLIKAAHLAPSCMNNQPWRFVVVDEEELLKKIHEALPGGNYWMKNAPALIAVHSKKDFDCALPDNRDYFLFDTGLAVGNLLVQATQMGLVAHPVAGYDPVKVKEILKIPEDHVLITLIAVGYLGDESELSEKHRELERSERVRKELSEIVRWNL | soluble
14 | MNPIQHILDTYPLIVLDGAMATELERKGCNLNDSLWSAKILMEEPELIKQVHTDYFAAGADCAITASYQSTFEGFAARGLSEAEARRLIELSVSIAAEARDEFWSLEENRLNRPKPIIAASIGPYGAYLADGSEYRGNYAISEDELIEFHRPRMKALIEAGADVLACETIPCLTEAKAIVRLLKEFPETYAWISFSAKDGLHISDGTPAADCASWLDEHRQIAALGINCTPLQHIPSLIEELKKNTSKPIIVYPNSGEQYDPETKTWNGAACAESYGASARTWHEKGARLIGGCCRTKPENIQEIAAWARSLKTT | soluble
15 | MSLGYATAHRRVRHLSADQVITRPETLAVEEPLEIRVNGTPVTVTMRTPGSDFELVQGFLLAEGVVAHREDVLTVSYCGRRVEGNATGASTYNVLDVALAPGVKPPDVDVTRTFYTTSSCGVCGKASLQAVSQVSRFAPGGDPATVAADTLKAMPDQLRRAQKVFARTGGLHAAALFGVDGAMLAVREDIGRHNAVDKVIGWAFERDRIPLGASVLLVSGRASFELTQKALMAGIPVLAAVSAPSSLAVSLADASGITLVAFLRGDSMNVYTRADRITEGHHHHHH | soluble
16 | VSRSRKEEERQEQSARLLSKLRRFDDLDRNWPIKILIQGLRFPIRSEQRLTEYFGCSNSYEISLRDIMNFLITDYEKIPLDLYEVCPAYKQKQIGRKTYSAIVNHLSEQGLGSTFRCEWNMRLKKLIRFMEKGWEYIPDSFRQYEYRA | soluble
17 | MGEIIKESDKRVALKLPANVTEIDDRAFLGCTRLESIDLSACTSLTAIKLAAFKGCTSLKAVQLPQSLTTIGHFAFEGCTALKEVELPQNLTVIGTDAFKGCSIETLVIHCDIKGTIIENFTKKDEVNKNVKKLTLGKGVTTIGNYAFYIIGYSKLAAVDFSACTALTEIGENAFAYSKLTNVNLSACIKLTEIGKSAFSNCTDLTNVDLSGCTALTTIGEQAFNSCYEATVKLPTGITAIGNEAFGENDEDFLCKNVLIPRSHAATIKPLVTASDYPEDRIREY | not soluble
18 | MPNLSCGVDNCAYNQNDMCSLNSIKVNGSFANHSEATCCGSFVEKGGFTNAAVDMGPAEPATSVACEAEKCCYNKNCKCHAESIDISGDYAQHQDNTECSTFRQELEHHHHHH | soluble
19 | MGSDKIHHHHHHMARQFIYHMAGLSKTYGNKKILENIHLSFYPDAKIGILGPNGAGKSTILRIMAGIDKEYTGEAWLSEGVRCGYLPQEPFLDASKDVRDNVMEGVADKQAIVERYNELMMNYSEETADESARLQDIIDGQNLWDLESQVEMAMAALGCPPANGDVTKLSGGERRRVALCKLLLSKPDLLLLDEPTNHLDAETTAWLERYLREYSGAVLLVTHDRYFLDNVTGWILELDRGKGIPYEGNYSAYLAAKAKRLAQEGREEAARQRALSREQEWIASSPKGRQAKSKARIKAYDELVQASRERRPGEAQIIIPIGERLGQVVIEVDNLSKAYGERVLIDDLSFKLPAGGIVGVIGANGMGKSTLFKMLTGQEQPDSGQIRIGETAHMSYVDQSRDSLVGDKTVWEEISGGNDVIKLGKYEMNSRAYCGAFNFKGADQQQKVANLSGGQRNRVHLAKLLKEGGNVLLLDEPTNDLDTETLGALEDALENFAGCAVIISHDRMFLDRLATHILAFEGDGHVEWFEGNFAEYEADKVRRFGADSLNLKRVNYKPLTR | not soluble
20 | MPEGILPIERDLLRFKEIVRGEVKKRVREFLTREELFGQVEGRLVSIPLPQLEIPKIVHGEPLGEGLGLGGPGEEALGPGGHIPVAELELEEFLDLVGEALRLPRLRPKGEGEVTEEALRHTTIARKGPRGLRHVRRTLKESLKRALQSGEYRPEDPLLVPEREDLRYKAPRRKPIPHAQAVVLFALDVSGSMREEELKLVKTLSFWITLWIKRHFPRLERRYLLHDAEAWEVPEEEFFKAREGGGTRISSALLLAEEILKAYPEAFYNRYLFHFSDGENWQGDTPLALEALRRLLPSLALYGYAQVESPYGQGHFLEEVQEALGGREGVALAAVRGREDLPVALKRLLGG | soluble
